According to patent US20160122431A1 (MAYO FOUNDATION FOR MEDICAL EDUCATION AND RESEARCH, published 2016):

Tests used:
murine B7-DC = target: T1, murine B7-DC (murine, UniProt Q9WUL5 20-247); test: cell-based or functional assay
T1 sequence (looked up): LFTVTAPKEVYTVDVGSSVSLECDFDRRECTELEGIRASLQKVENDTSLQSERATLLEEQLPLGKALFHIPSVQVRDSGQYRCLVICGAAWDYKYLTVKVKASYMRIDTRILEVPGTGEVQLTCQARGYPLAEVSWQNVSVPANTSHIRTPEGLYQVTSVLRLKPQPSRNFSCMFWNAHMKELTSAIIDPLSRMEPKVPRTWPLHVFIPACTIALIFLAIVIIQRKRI

human B7-DC = target: T2, human B7-DC (human, UniProt Q9BQ51 20-273); test: flow cytometry on Ltk cells transiently transfected with human B7-DC
T2 construct: whole, on cells; also called hB7.DC; human B7-DC orthologue
T2 sequence (looked up): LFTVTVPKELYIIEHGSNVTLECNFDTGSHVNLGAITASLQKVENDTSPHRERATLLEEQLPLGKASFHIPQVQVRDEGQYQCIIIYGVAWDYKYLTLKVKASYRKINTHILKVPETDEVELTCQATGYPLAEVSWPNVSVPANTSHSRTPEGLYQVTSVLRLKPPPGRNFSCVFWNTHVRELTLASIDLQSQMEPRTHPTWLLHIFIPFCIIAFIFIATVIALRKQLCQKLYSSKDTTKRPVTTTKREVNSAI
Text: Furthermore, the level of sHIgM12 binding to L-cells was positively correlated with the amount of B7-DC plasmid used in the transfection.

B1: sHIgM12 (human monoclonal IgM antibody, pentameric) (antibody)
heavy: QVQLQESGPGLLKPSETLSLTCTVSGGSVSLYYWSWIRQSPGKEPEWIGYIYSSGSTDYNPSLRSRVTISLDTSNNRFSLNLRSVTAADTAVYWCARSASIRGWFDPWGQGTLVTVSSGSASAPTLFPLVSCENSPSDTSSVAVGCLAQDFLPDSITFSWKYKNNSDISSTRGFPSVLRGGKYAATSQVLLPSKDVMQGTDEHVVCKVQHPNGNKEKNVPLPVIAELPPKVSVFVPPRDGFFGNPRKSKLICQATGFSPRQIQVSWLREGKQVGSGVTTDQVQAEAKESGPTTYKVTSTLTIKESDWLSQSMFTCRVDHRGLTFQQNASSMCVPDQDTAIRVFAIPPSFASIFLTKSTKLTCLVTDLTTYDSVTISWTRQNGEAVKTHTNISESHPNATFSAVGEASICEDDWNSGERFTCTVTHTDLPSPLKQTISRPKGVALHRPDVYLLPPAREQLNLRESATITCLVTGFSPADVFVQWMQRGQPLSPEKYVTSAPMPEPQAPGRYFAHSILTVSEEEWNTGETYTCVVAHEALPNRVTERTVDKSTGKPTLYNVSLVMSDTAGTCY
light: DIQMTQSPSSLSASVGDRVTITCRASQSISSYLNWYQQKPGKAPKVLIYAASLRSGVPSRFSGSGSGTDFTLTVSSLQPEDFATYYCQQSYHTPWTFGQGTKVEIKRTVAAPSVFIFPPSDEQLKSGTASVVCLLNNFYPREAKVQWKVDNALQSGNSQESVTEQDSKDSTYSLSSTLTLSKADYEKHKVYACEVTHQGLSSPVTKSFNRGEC
notes: IgM/kappa purified from human patient serum; A J chain is not mentioned; also called B7-DC cross-linking antibody; sHIgM12 antibody
- GFP+, CD11c+ DC recovered from draining lymph nodes after adoptive transfer (murine B7-DC): 5 fold
- IL-12 p70 release by DC (ELISA), against LPS (murine B7-DC): ~3 fold
- ability of lymph node DC to induce an antigen-specific T cell response (murine B7-DC): 10 fold
- binding result (human B7-DC): binds
